Results as given in paper PMC12209930, “A TATA-box-binding protein binds single-stranded DNA in two modes: To poly(G) tracts and to flexible DNA regions”.

molecular target: T1, gTBP (GST-gTBP) (Giardia intestinalis WB C6 (ATCC 50803), UniProt E2RU70 1-200); assay: competition; vs H2B-a probe; better than L; 10 mM Tris-HCl pH 8.0, 0.15 M NaCl, 0.5 mM TCEP, 5% glycerol, 1 ug/ul BSA, 15 ng/ul salmon sperm DNA, 30 min on ice; probe 0.1 pmol/ul, competitor 200-fold excess; conditions: protein: recombinant; tags: N-terminal GST
T1 sequence: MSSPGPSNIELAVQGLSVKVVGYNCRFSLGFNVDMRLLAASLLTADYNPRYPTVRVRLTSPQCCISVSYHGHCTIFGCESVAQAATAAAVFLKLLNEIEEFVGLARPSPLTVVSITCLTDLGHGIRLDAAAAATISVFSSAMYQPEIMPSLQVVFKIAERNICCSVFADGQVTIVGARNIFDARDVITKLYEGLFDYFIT

Row | Binder | binding result
1 | CTGCGGAAGGGGGGAAAAAGCGGGCGGGAAAGAAAT (ssDNA) [H2B-a Right (R)] | binds
2 | TAGAAGTGCACAGGGGGGCAGATTTCGGCTGC (ssDNA) [H2B-a L1] | binds

molecular target: T1, gTBP (GST-gTBP); assay: EMSA; A complex; total binding, Hill fit; 10 mM Tris-HCl pH 8.0, 0.15 M NaCl, 0.5 mM TCEP, 5% glycerol, 1 ug/ul BSA, 15 ng/ul salmon sperm DNA, 30 min on ice; probe 0.1 pmol/ul, competitor 200-fold excess; conditions: protein: recombinant; tags: N-terminal GST; label: 5'Cy5

Row | Binder | Kd
3 | H4-a (ssDNA) DNA: GTAGGGCGCAGATTTGGGCTAAAAAAGAAGACGCGGGAAGGGGCAAATAAAAATG | 500 µM
4 | H2B-a (ssDNA) DNA: TAGAAGTGCACAGGGGCGCAGATTTCGGCTGCGGAAGGGGGGAAAAAGCGGGCGGGAAAGAAAT | 7200 µM

molecular target: T1, gTBP (GST-gTBP); assay: competition; vs H2B-b probe; less well than H2B S1; 10 mM Tris-HCl pH 8.0, 0.15 M NaCl, 0.5 mM TCEP, 5% glycerol, 1 ug/ul BSA, 15 ng/ul salmon sperm DNA, 30 min on ice; probe 0.1 pmol/ul, competitor 200-fold excess; conditions: protein: recombinant; tags: N-terminal GST

Row | Binder | binding result
5 | H2B S2 (ssDNA) DNA: CACCTTCTCAGCGACGCTTCCTCTTTCCCTAGCGACGTGTAACCACGCGATTTGTGCCATC | binds

molecular target: T1, gTBP (GST-gTBP); assay: EMSA; B1+B2 complexes; Hill n about 2; 10 mM Tris-HCl pH 8.0, 0.15 M NaCl, 0.5 mM TCEP, 5% glycerol, 1 ug/ul BSA, 15 ng/ul salmon sperm DNA, 30 min on ice; probe 0.1 pmol/ul, competitor 200-fold excess; conditions: protein: recombinant; tags: N-terminal GST; label: 5'Cy5 (probe)

Row | Binder | Kd
6 | H4-b (ssDNA) DNA: CATTTTTATTTGCCCCTTCCCGCGTCTTCTTTTTTAGCCCAAATCTGCGCCCTAC | 7 µM
7 | H2B-b (ssDNA) DNA: ATTTCTTTCCCGCCCGCTTTTTCCCCCCTTCCGCAGCCGAAATCTGCGCCCCTGTGCACTTCTA | 5 µM

molecular target: T1, gTBP (GST-gTBP); assay: competition; vs H4-b and H2B-b probes; 10 mM Tris-HCl pH 8.0, 0.15 M NaCl, 0.5 mM TCEP, 5% glycerol, 1 ug/ul BSA, 15 ng/ul salmon sperm DNA, 30 min on ice; probe 0.1 pmol/ul, competitor 200-fold excess; conditions: protein: recombinant; tags: N-terminal GST

Row | Binder | binding result
8 | AAAAAAAAAAAAAAAAAAAAAAAAAAAAAA (ssDNA) [dn 1] | no binding
9 | AAAACTCCTCCCTTGCCGCCGTTCCCAAAA (ssDNA) [dn 8] | binds
10 | AAAACTCCTCCCTTCCCTTTCTTCCCAAAA (ssDNA) [dn 13] | binds
11 | AAAAAAAAAAAAAAAAAAAAAAAAAAAAAA (ssDNA) [polyA(30)] | no binding
12 | TTTTTTTTTTTTTTTTTTTTTTTTTTTTTT (ssDNA) [polyT(30)] | binds
13 | AAAAATTATACCTATGCCGCACTCAAAAAA (ssDNA) [dn 15] | binds
14 | AAAATTATACCTATGCCGCCGCACTCAAAA (ssDNA) [dn 14] | binds
15 | AAAACTCCTCCCTTCCCGTTCTTCCCAAAA (ssDNA) [dn 12] | binds

molecular target: T1, gTBP (GST-gTBP); assay: competition; vs H2B-a and H4-a; annealed in Na+ and K+; 10 mM Tris-HCl pH 8.0, 0.15 M NaCl, 0.5 mM TCEP, 5% glycerol, 1 ug/ul BSA, 15 ng/ul salmon sperm DNA, 30 min on ice; probe 0.1 pmol/ul, competitor 200-fold excess; conditions: protein: recombinant; tags: N-terminal GST

Row | Binder | binding result
16 | GGGGTTTTGGGGTTTTGGGGTTTTGGGG (structured_DNA) [Oxytricha telomere (Oxy)] | binds
17 | TAGGGTAGGGTAGGGTAGGG (structured_DNA) [Giardia telomere (Gia)] | binds
18 | GGGTTAGGGTTAGGGTTAGGGT (structured_DNA) [Human-1 telomere (Hu1)] | binds

molecular target: T1, gTBP (GST-gTBP); assay: competition; vs H2B-a probe; 10 mM Tris-HCl pH 8.0, 0.15 M NaCl, 0.5 mM TCEP, 5% glycerol, 1 ug/ul BSA, 15 ng/ul salmon sperm DNA, 30 min on ice; probe 0.1 pmol/ul, competitor 200-fold excess; conditions: protein: recombinant; tags: N-terminal GST

Row | Binder | binding result
19 | CTGCGGTTGGGGGGTTTTAGCGGGCGGGAAAGAAAT (ssDNA) [H2B-a R3] | binds

molecular target: T1, gTBP (GST-gTBP); assay: competition; vs H2B-b probe; 10 mM Tris-HCl pH 8.0, 0.15 M NaCl, 0.5 mM TCEP, 5% glycerol, 1 ug/ul BSA, 15 ng/ul salmon sperm DNA, 30 min on ice; probe 0.1 pmol/ul, competitor 200-fold excess; conditions: protein: recombinant; tags: N-terminal GST

Row | Binder | binding result
20 | H2B S1 (ssDNA) DNA: ACCCCTCCTTCGCTCGCTCCTTCCTTTCTCCCGCAGCCGAGACTTGCGCTTTACGTGATCC | binds
21 | aGN-a (ssDNA) DNA: CAATTTGAGCTTCAAAAAATACCGCCAAAAAATGGCAATTCGGTTTTAAAAATG | no binding
22 | ATTTCTTTCCCGCCCGCTTTTTCCCCCCTT (ssDNA) [H2B L] | binds

molecular target: T1, gTBP (GST-gTBP); assay: competition; vs H4-b probe; 10 mM Tris-HCl pH 8.0, 0.15 M NaCl, 0.5 mM TCEP, 5% glycerol, 1 ug/ul BSA, 15 ng/ul salmon sperm DNA, 30 min on ice; probe 0.1 pmol/ul, competitor 200-fold excess; conditions: protein: recombinant; tags: N-terminal GST

Row | Binder | binding result
23 | CCTTCCCGCGTCTTCTTTTTTAGCCCAA (ssDNA) [H4 C] | binds
24 | H4 S1 (ssDNA) DNA: ACACCCACCTGCTTCCTCTGCGCCCTTTCCCTCCAGCTTAGACCATCGCGTTCAT | binds
25 | CTTTTTTAGCCCAAATCTGCGCCCTAC (ssDNA) [H4 R] | binds
26 | H4 S2 (ssDNA) DNA: TACCTCACCTGCTTCTTCTTCGCGTTCCCTCCTCCAGCCCAAACTTGCGCCTCAT | binds
27 | CATTTTTATTTGCCCCTTCCCGCGTCTT (ssDNA) [H4 L] | binds
